Laboratory results as given in publication PMC12041315, “UHRF1-mediated epigenetic reprogramming regulates glycolysis to promote progression of B-cell acute lymphoblastic leukemia” (Cell Death & Disease, 2025).
Blank lines part the entries; values can stand above or below the molecule they belong to.

Assays:
UHRF1 = biological target: T1, UHRF1 (Homo sapiens, UniProt Q96T88); experiment: microscale thermophoresis; format: binding; settings: RED-NHS labelled protein, 1 µM; room temperature, 30 min
T1 sequence (Q96T88 1-793): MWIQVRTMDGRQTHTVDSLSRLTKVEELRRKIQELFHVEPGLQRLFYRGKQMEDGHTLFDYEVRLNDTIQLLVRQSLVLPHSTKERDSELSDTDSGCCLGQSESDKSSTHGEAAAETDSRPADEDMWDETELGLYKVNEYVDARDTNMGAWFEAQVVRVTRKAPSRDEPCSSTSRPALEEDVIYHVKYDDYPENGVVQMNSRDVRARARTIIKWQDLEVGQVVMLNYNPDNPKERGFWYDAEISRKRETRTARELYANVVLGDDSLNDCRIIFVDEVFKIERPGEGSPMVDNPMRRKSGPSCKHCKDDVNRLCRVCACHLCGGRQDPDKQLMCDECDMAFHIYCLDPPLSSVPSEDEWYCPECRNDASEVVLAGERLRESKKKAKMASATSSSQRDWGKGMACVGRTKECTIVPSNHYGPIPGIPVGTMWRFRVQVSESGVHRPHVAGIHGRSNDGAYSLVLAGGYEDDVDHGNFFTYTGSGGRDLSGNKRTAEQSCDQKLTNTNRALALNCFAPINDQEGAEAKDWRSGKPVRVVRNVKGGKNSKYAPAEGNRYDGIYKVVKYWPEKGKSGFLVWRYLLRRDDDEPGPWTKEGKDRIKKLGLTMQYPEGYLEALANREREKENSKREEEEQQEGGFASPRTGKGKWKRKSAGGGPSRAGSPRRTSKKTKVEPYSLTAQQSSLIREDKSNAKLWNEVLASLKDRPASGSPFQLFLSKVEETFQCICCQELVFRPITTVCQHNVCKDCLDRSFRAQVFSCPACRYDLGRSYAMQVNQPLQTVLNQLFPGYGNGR

[1] = biological target: T2, biotinylated SFRP5 protein (secreted frizzled-related protein 5) (UniProt Q5T4F7 30-317, biotin (biotinylated; site not stated)); experiment: BLI
T2 chain: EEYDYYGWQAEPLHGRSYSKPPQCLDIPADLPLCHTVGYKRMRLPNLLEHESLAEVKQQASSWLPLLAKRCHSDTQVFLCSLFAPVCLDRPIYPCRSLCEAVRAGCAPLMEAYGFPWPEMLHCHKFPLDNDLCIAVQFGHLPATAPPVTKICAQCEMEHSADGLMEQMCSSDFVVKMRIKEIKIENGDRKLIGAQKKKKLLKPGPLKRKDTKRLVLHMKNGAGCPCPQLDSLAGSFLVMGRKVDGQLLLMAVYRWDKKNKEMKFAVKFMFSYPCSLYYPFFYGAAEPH

WNT5A protein = biological target: T3, WNT5A protein (UniProt P41221 62-380); experiment: BLI; biotinylated SFRP5 immobilised on the biosensor (ForteBio Octet RED 96e); WNT5A in Assay Buffer at 0.156 to 5 uM; global fitting model; settings: both partners purified
T3 construct: WNT5A protein
T3 sequence (looked up): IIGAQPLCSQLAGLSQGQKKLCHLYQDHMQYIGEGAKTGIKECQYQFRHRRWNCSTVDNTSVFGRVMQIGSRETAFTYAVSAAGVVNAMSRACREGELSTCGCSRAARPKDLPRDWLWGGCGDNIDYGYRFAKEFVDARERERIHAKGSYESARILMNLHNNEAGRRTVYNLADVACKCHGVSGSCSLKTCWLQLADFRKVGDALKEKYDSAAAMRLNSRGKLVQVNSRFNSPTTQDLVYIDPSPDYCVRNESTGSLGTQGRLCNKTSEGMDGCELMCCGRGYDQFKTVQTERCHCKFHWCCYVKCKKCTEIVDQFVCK

Kd (UHRF1): 10.2 µM
Molecule: Cc1nc(Nc2ncc(C(=O)Nc3cc(NC(=O)c4cccc(C(F)(F)F)c4)ccc3C)s2)cc(N2CCN(CCO)CC2)n1 [UM164]

Kd [1]: 0.0203 µM
B1: WNT5A protein (natural protein)
chain: IIGAQPLCSQLAGLSQGQKKLCHLYQDHMQYIGEGAKTGIKECQYQFRHRRWNCSTVDNTSVFGRVMQIGSRETAFTYAVSAAGVVNAMSRACREGELSTCGCSRAARPKDLPRDWLWGGCGDNIDYGYRFAKEFVDARERERIHAKGSYESARILMNLHNNEAGRRTVYNLADVACKCHGVSGSCSLKTCWLQLADFRKVGDALKEKYDSAAAMRLNSRGKLVQVNSRFNSPTTQDLVYIDPSPDYCVRNESTGSLGTQGRLCNKTSEGMDGCELMCCGRGYDQFKTVQTERCHCKFHWCCYVKCKKCTEIVDQFVCK

Kd (WNT5A protein): 20.3 µM
B2: biotinylated SFRP5 protein (secreted frizzled-related protein 5) (natural protein, UniProt Q5T4F7 30-317, looked up)
chain: EEYDYYGWQAEPLHGRSYSKPPQCLDIPADLPLCHTVGYKRMRLPNLLEHESLAEVKQQASSWLPLLAKRCHSDTQVFLCSLFAPVCLDRPIYPCRSLCEAVRAGCAPLMEAYGFPWPEMLHCHKFPLDNDLCIAVQFGHLPATAPPVTKICAQCEMEHSADGLMEQMCSSDFVVKMRIKEIKIENGDRKLIGAQKKKKLLKPGPLKRKDTKRLVLHMKNGAGCPCPQLDSLAGSFLVMGRKVDGQLLLMAVYRWDKKNKEMKFAVKFMFSYPCSLYYPFFYGAAEPH
modifications: biotin (biotinylated; site not stated)
notes: secreted frizzled-related protein 5 (SFRP5)
